Data reported in article PMC12455937, “Interaction of West Nile virus NS5 with orthoflavivirus SLA RNAs and their effects on viral replication and inhibition” (Journal of Virology, 2025).
Several values for one entry are separate records, joined by “and”; a condition that tells them apart may be missing. Equal entries are not always repeated.

Target: the molecule itself
Test: mass photometry; NS5 alone at 20 nM in MP buffer (50 mM HEPES, pH 7.5, 40 mM NaCl, 10 mM MgCl2); TwoMP (Refeyn); DENV NS3 and NS5 as mass standards; oligomers assigned from peak masses

B1: Full-length lineage II WNV NS5 (enzyme)
chain: not shown
notes: also called full-length NS5; viral polymerase
B1 was tested, and the “stoichiometry N” value was 2 and 3 and 4.
